Reference: US20210369837A1, “METHODS OF TREATING TIM-3 ELEVATION” (ADVANTAGENE, INC., priority 2016, published 2021)

Test system: PD-L1
Test: Flow cytometry of PD-L1 protein expression after interferon treatment
Format: cell-based, mouse
Details: CT2A and GL261 cells, day 4 post-treatment, IFN-β 1000 U/ml (FIGS. 5C-5F)
Method: In another experiment, CT2A and GL261 cells were treated with IFN-β (1000 U/ml) (PBL Assay Science, Piscataway N.J.) and/or MAR-1-5A3 monoclonal antibody against IFNAR1 (BioXcel, West Lebanon, N.H.) ([…]). Cells were analyzed by flow cytometry for PD-L1 protein expression at day 4 post-treatment using either in the absence of specific antibody (isotype) or with PD-L1 specific antibody (BD Bioscience, San Jose, Calif.). Cells analyzed were either subjected to no treatment (untreated), or treated with INFα or INFβ.
FIG. 5D and FIG. 5F show quantification of the percent of live cells analyzed by flow cytometry that express surface PD-L1 above baseline.

B1: IFN-β: IFN-β (1000 U/ml) (PBL Assay Science) used to treat CT2A and GL261 cells (protein, UniProt P01575 22-182, looked up)
Interferon beta: INYKQLQLQERTNIRKCQELLEQLNGKINLTYRADFKIPMEMTEKMQKSYTAFAIQEMLQNVFLVFRNNFSSTGWNETIVVRLLDELHQQTVFLKTVLEEKQEERLTWEMSSTALHLKSYYWRVQRYLKLMKYNSYAWMVVRAEIFRNFLIIRRLTRNFQN
For B1, the “Surface expression of PD-L1 protein” value was “increased surface expression of PD-L1 protein” and the “Surface expression of PD-L1 protein” value (listed as INFβ) was “Increases in surface PD-L1 expression”.
